Among the data in a protein production outcome set (Wang et al. 2014) are protein production values, retold here.

The nature of the data set: label from the status in PepcDB records.
“MVQLIKKYEDLLCLLDELIKNESTFRWDEFYLERERDVPFFVLAPDEQLVEYVCTGLIESGKVLELGCGPGRNAIYLAENHFEVDVVDLSQKAIDWAMDRANERKASIRFIRENIFNLNVNKASYDLVYDSGCFHHIPPHRRMDYIHLVTTALKPGGHFGLTCFIENGPLGGAAISDLDVYRQQSLQGGLGFTEQKLIQIFDDFAVIEIRKMKEYPNDSSRFGVNGLLTALFQKKKVEKVKLEHHHHHH”: the protein production entry is “failed”. In the case of “MVQLSLSQVHQDQIYRHGERCYPEECCGLLLGKILIGENGHRHWQVVEVQPTENCWGDVEEFQQNNHQGNKLHYFAIDPKVLLSAQKDCRQKGLSIIGIFHSHPHGQPIPSEFDRAIAWPEYIYLIASGLEHHHHHH” it was “failed”. In the case of “MVQTIIDPVILPFNGDDTKSSLLTGGDPPSAAELAAKTVEDQLPREANPTAPAVAPLSLSLEDLKAILATVTKDLSQRLTAGSTS” it was “failed”. For “MVRGDAVIVQAALQDGHWSGRADVLRRVEIPSGLGAWSSVVEDKKQALDLVDRVLSKNPASASAHRTKGAILLFGHPEEAMAEYDAALEIDPNNPAVYAAKTITLIVTGRAREAFSPLQLAHCYVCFGHCARVAEARCSIRTQGAGLRRVALLARSRT” the value was “failed”; for “MVRGIRGAITVEEDTPEAIHQATRELLLKMLEANGIQSYEELAAVIFTVTEDLTFAFPAEAARQIGMHRVPLLSAREVPVPGSLPRVIRVLALWNTDTPQDRVRHVYLREAVRLRPDLESAQ”, “not failed”. Turning to “MVRHRGNKEERQQALRRYLRSNPFATDEELAEKFEVSVPTIRLDRLALGIPEVRERIMAMAQEARSRMRGVTAEELVGELVELQPGVMGISILEITPPMLVQPAGVARGYYLFAQAHSLALATVGAEVVLTSSARVRYRRPVYAGERVVARAMVKVVKDSTCLVSVHSRVNGEIVFKGRYIIITPDAATGGGSA”, the protein production result is on record as “failed”. In the case of “MVRKQKRARLIYNPTSGQEIMKKNVAEVLDILESFGYETSAFQTTPRADSAKNEAARASQAGFDLVIAAGGDGTINEVVSGIAPLKRRPKVAIIPTGTTNDFARALKIPRGNPVEATKLIGKNQTIHMDIGRAYNDKYFINIAAAGSLTELTYSVPSQLKTMFGYLAYLVKGAELLPRVRNVPVKVFYDHGVFEGEASMIFVALTNSVGGFETIAPDAKLDDGKFTLILVKTANLFELTDLIRLVLTGGRHINHKKIEYIKTSYLKIIPQGNPPKRMMINLDGEYGGDAPIELRNLKNHIEFFANTDEISDDAITLDTEELVLEAIAQKFAREAESLDEMDKTKEQD” it was “not failed”; in that of “MVRRCETQRGRWDNKVNILKDTDKFGFDLGFQLQESKKRFGPDLGFCIKRFAPPILQMSLEENENGPKPTWQIRSNRETSKAIRSAPPLTFSSFTGVSLGRKLPNNKNPESSKTRQEGFDTVEEGLKGDRGRTSVDRSEYDGG”, “failed”; in that of “MVRSCAPHKRKAGRRARLAFGALASHGARENTEVPMRYVLILLLALFGYLLFWPIPVAPVAYHPPETPGFTGDFAENRVLDRAEFVTLPDGEIGPEDLAVMPDGTVYTTSLAGNLYRIDGAVPQLVDRLGGRPLGLKAGPDGALYIADSFRGILRWTAPGEVETVVDQIDGAPVIYANQLDLGRDGTIYFSNSTDRFDPRTLGGTKPTSVMTVWEQSDTGYVARRTPDGRVEKIATGFVYTNGVALSPDEDFLLINETGRARVHRLWLTGDKAGQSEVFLDNLPGYPDNIEAQGDGTYWLAFASPRVPAEALMPYPFLRKVVWRLGPKVRPAPIHRGMLIQFDGTGRILRTVQDPDGRLGITTGGKQVGARFYVMTLDSPGFARMDSADLR”, “failed”. For “MVRTRLFGTFPHLSRSAQAQRNMTTTYANADPGELEKFSELAHRWWDPNSEFKPLHEINPLRLDWIQSTAPLAGKRVVDVGCGGGILSESMARAGANVKGIDLSRKALRVADLHSLEAGVAVDYEEIAAEALAAREPGSFDVVTCMEMLEHVPDPASVVRACATLVKPGGHVFFSTIHRNAKAYLLAVIGAEYVLNMLPRGTHDYAKFIRPSELAGFARTAGLEPAQLRGLEYNPLTGRYALTHDTSVNYLIATRRPDAP”, the protein production result was “failed”. For “MVRVDQNLFNEVMYLLDELSQDITVPKNVRKVAQDSKAKLSQENESLDLRCATVLSMLDEMANDPNVPAHGRTDLYTIISKLEALS” the value was “not failed”. For “MVSDAALHGKLAVEHASDHLVVLAQADSGPITVDQFKEKLKEVQQEEQLGWLTAIGKYFIGIFQKGGEVFAGFVTGIIPTLVVLMTAFYAVTELVGEERVHGLARGAGRIALTRYTLLPLLAVFFLTNPMAYTFGSFLEEKHKPAFYDAAVSYVHPPLGLFPHINPGEYFVWGGILVALLELEKKGVVVAGYHVKVAIWYAIVGLVVILLKGMLTERITTIMARRQGVEL” the value was “failed”. For “MVSEMLSEAGHSVSYLKGGMKAWSEHLEPVKVGDLKDGGEMYQFVRIGKGCLSYMVISNGEAAIIDATRMVNFFIDFAKGKGATITHVFDTHLHADHISGGRVIAEKTKATYWLPPKDAEEVEFDYQPLEEGNDIIIGNTTIKIQPIYSPGHTIGSTSFIVDDQYLLSGDILFIDSIGRPDLAGMAEDWVGDLRKTLYSRYKALSKDLIVLPAHFMIIDELNENGSVGKQLSTLFSENHGLNIADETEFRHLVTDHLPPQPNAYQEIRETNMGKISPDEEKQREMEIGPNRCAIRLEHHHHHH” the value was “failed”. On to “MVSFDHATLGYITFVLMNFSMLSGAFIFLSKKKQHWIKVHLLVSILTYIFMVWTIWVVR”, for which the protein production entry is “failed”.

“MVSLLLISLLYLGIMLIAAKISEEIFRRIGLVTFVGPILMGILLGNGVFGVIQINEIISFITSLGIVFLLFLAGAEEFNVENRPNANVFLAVILESIIPFSVILVAIYIIGFKNYLILIVPLAMSSAGPLSRMLMDVKISDNRISNLIFQQVILIEIIFVILFAILLKTSEILITIIEIFLVFAFTIMFGRTLAKILEKIEYYFKAREIEFASLIAIILIIGYLAELYKFNSAISAFFLGILLKDYLKDRPELLERLHAFTYGFFEPLFFLGIGLYVTKINASIILFSLLFFSLIIASKFLAGFISSKILNIKGKINGFATSVKGGVDSSLLLTGLTLGYINEFMYSFSILAISLSALIVPLLFQINFKISNKISESKKVKLSQEVIKLQIKPLYASCEENLRSVISKISERGVRGIVVVNYENKPLGYVSIQTLLEIDPELYESTKACEVPLDEVPIEYDNVKVIDLLRKFRETEKPVIAIINKEGVLVTTVYERELARFLISF”: the protein production entry is “failed”. In the case of “MVSSLSVYYRKLAYHVIESDGFLWVGFKPGMVHFIAKEVWNIRPLTRTDVERYYEEFTVLTQGKGSLYFRIVAHGGFLKEALAYELHGLTVSDDNYLRSLNSGRHVELYPHNEKAYRAIIKGFEQHRIGTVVQATGTGKSYLLARYISDHATERICVFAPNVTILEEIKKAVGFTSPYICYRTFQSLIYYRKNDKQLKADHILIDEFHHFGAEIWGAALQEVIESNPQAYILGTSATPIRPEGMIDTVDLYFEGNLFYELTLPQAWYYRILPVPILVQSAYGLDGELNRLQKRLDRSGCSIRRKEQVQKKLDVARVDFKGALGAPEVIRKFLPKDVCKLLVFCRDLTDLKQMVPEVCGWLTQAGRVIIPFEIHHTQSERINNQILKAFQKESGKLHVLFSVNMLIEGLHVEGIDAVLFLRRTESYIVTLQQLGRCLDAGSGKQPVVLDFVNNLSGKSVYDMMALHMERLACQPSPKGFEGVTSFLTTGFLSDIRLRIEEILTELEPWQIMYERLIEFRKKENDWPSVTEGKLGLWCNTQRMAYKRGRLSEERYKLLESVGFEWNLLDSNWMKEFQSLKVFFATQGRWPKREDGALATWCYTQRERRKKGRLSKERIRVLDEIGFVWSQDLNGEWMKNYEALKIFLDKQQRFPKSAEGYLGEWCSTQRKMRKQGKLSPDRQTLLDRIGFVWSVEQVWRSHLEQLHQFHVQNGRWPGCREGALGRWCTVQRRNYRRGSLSDQKIVQLEQIGFIPLKGDE” it was “failed”.

With “MVSSSLSLTTLAGGTLLLKGSPSTLFYKHGRTLFIVDPGHGRKRAKQISKAAEKLGGEAVAIITHFHSDHLSTLYQGFQPSTALAPVKDLAMVQDRVMRLHYTFGYPFTGAEDYLLFKAEDVDNVEPLEAERIKPLRLVPLPGHTPGQTGVETPDGVLYAADSIFGERVLQTYAVPYHSNPCQALETLTRLRDRVNRLEVIVPSHGKPVKGEEAERLLEMNIERLEDAWTALTEELSRAPASVGLLASTLMKRYGAEATPTLAILVETAVRGYIGCHGAELEPILESGVVKWRVRRR”, the protein production entry is on record as “failed”. On to “MVSTLGSDTFTSISAHDLHGKLGNIHLIDVRENDDFKEGHIPTSRNIPMDILLKEPEKYINKTDEYYIVCQAGVKSEKTCKELWSKGYKVINIKDGTDSYKQPLEHHHHHH”, for which the protein production result is “failed”. With “MVSTVRTVLGDVLPEHLGVCDAHDHLFFGSPQLPGQELRDASAARAELAAFREQGGGSVVQWTPYGLGRRAADLPLLSRDTGVHVVAATGLHQAVHYDAGTLAELRGRLADTFVAELTTGIGPSGVRAGLIKVAGGFHALDAHARWTMTAAAEAHHATGAPIAVHLELGTGALDVLDLLCGESGVPPHRVILGHLNRSPDFTVHRQAAEAGAFLAFDGPSRANHATDWRMPDALRALAEAGFGHRLLLGGDTTTAAARSVNGGPGLPYLLRRLRPRLEQALGKDLVGRIFTENPGRAFGVEWR”, the protein production result was “failed”. For “MVSVGGDSVADSTVNQAKQSIRRSESITMERIVSFTLEEVPESIAKLEDKLFSYLLDLEGLASGRQRQTMSGEVGFGVLKAIDDQTIQDRLHW” the value was “failed”; for “MVSVSVVIATLKPRDEIEAIQCLEDQTFDDFEVIVCDKSPVTRARNEGIRQSSSDKIVFLDDDSRPQPGYLEKANDVLETEAAYAGRTIHPVDDVFARHFTAHYDWGGDPCYVDHFWGCNMGVHRDVFKTVGGWDEEMGWGHEEKELARRVRSEFDIRYDPELVVDHPYASSITDYWKKQYKLETKSPYYWSKCNVSRADQLKNIFCETFDPLNYVRITPVATMIEAGSTVAKTAGRLRGFLDHTHHEEGRGGVPDIDRPSQSPERSGLEHHHHHH”, “failed”. As to “MVSWHPSVYLAQRTSKAAKNILAAPPLILSISFIFLILIGTLILKLPISTTVPVTWSQSLFNATSAVTVTGLVVFDVGTVYTTFGQVVIALLIQLGGLGIMTFAIVTLLALGAKIGFLQNTIAKEAYNSTNTATLVTTAKSVLIFSLCVELIGMIILAVSWSDELGWRTSLFHGFFYTISAFNNAGIGLSPDSLMPYVEDPIINLTITALFIIGGLGFTVWIDLWRKKRWDKLTTYSKMMIIGTISINAIAVLAIYCIEYNNPKTLVPLSETGKWLASWFQAVTPRTAGFNTLAMNELEDATTAIMLMLMFIGGGSLSTASGIKVVTFMVLILATYGYLRRYDFVYVYHRGISKDTISKALALAMISVGTIWASIFFLLLSENASMIDIIFEAVSAFGTVGLSRGLTSNLTVTGQFIIIFLMFMGRLGPLTLAYFLASPKSKRIRYPETKLTIG”, the protein production entry is on record as “failed”. For “MVSYKILSVANKLKNIRDKYGLSQEDLAGNEITRNLISQIEHNKANLTRSAAEIMLKNLKKICDKKNVQVDEDINYLMEDEKSQAIKVLDKYIDDLRDLTIYKDNVFINKLREVEDFLVTWDFRDKKITIFELAGDYFSSTNDFYNASLYYEKAKALIDINIYSDNIVHILRKLSMTYYYMLRYQDDINCCEFALKQFKNMDEEYRCIFLFNSSLCYGQLKKYDLALKRLNEVESIIKNIDQNKYYEVLIQKAICYQWMKEYQKSLDIYNKLLESIDKSDYEKYLFILVNSSDIYVENSNFEKAESNLRIILENINNLNESSTLLPSTYLEMSRILKKLGYTKDAELYCLKSLNYAKRNTHYYLVNDIYGELLDIYKTLNVPEKVQTIKDEFFSNSSRDKNLNSKLMFKLLDFYFATNDIHSIKEIYDFSKNFIQERMINLCY” the value was “failed”.
